B1: Protein Vpu (Human immunodeficiency virus type 1 group M subtype B (isolate HXB2) (HIV-1)), P05919 (parent)
chain: MQPIPIVAIVALVVAIIIAIVVWSIVIIEYRKILRQRKIDRLIDRLIERAEDSGNESEGEISALVEMGVEMGHHAPWDVDDL

Variants of: B1
Settings: with cd4_human CD4, P01730
With I18F;V22F;V26L the “effect of a mutation on the interaction” value was “decreasing interaction strength”.
